Assay in all cases: Radioligand binding, displacement of 125I-Tyr11-SRIF-14
For orientation: Loss of bound radioactivity is the signal in a displacement assay; it reports binding, not function.

The target in one test is T1, hSSTR-4 (Homo sapiens, UniProt P31391).
T1 construct: host or cells: Chem-1 (Rat ChemiSCREEN) cells, membrane preparation
Particulars: hSSTR-4. From the text: (§1) The binding to human cloned receptors SSTR-1, or SSTR-2 or SSTR-3 evaluated in stable and selective transfected CHO (Chinese Hamster Ovary) cells and binding to STSR-4 and SSTR-5 in stable and selective transfected Chem-1 (Rat ChemiSCREEN) cells. […] The binding reactions were filtered, the filters were washed, and the bound radioactivity was counted using a gamma counter.
(§2) The following table depicts the conditions of binding assay to each of the somatostatin receptors used for the evaluations of binding affinities of the tested peptides. All assays were performed by quantitation method of radioligand binding under 25° C. The vehicle was 1% DMSO, the incubation buffer was 25 mM HEPES, pH 7.4, 5 mM MgCl2, 1 mM CaCl2, 0.1% BSA. […] The significance criteria were >50% of max inhibition. […] This specific binding data used for calculation of Bmax values which is the concentration of each of the expressed cloned receptor in its transfected cell system.
(§3) The Results of IC50 values were determined by a non-linear, least squares regression analysis using MathIQ™ (ID Business Solutions Ltd., UK). […] The Hill coefficient (nH), defining the slope of the competitive binding curve, was calculated using MathIQ™.

In a further test the target is SSTR5 (Homo sapiens, UniProt P35346). On the set-up: host or cells: Chem-1 (Rat ChemiSCREEN) cells, membrane preparation. Particulars: hSSTR-5.
Source text: as §1, §2, §3

Another test concerns the target SSTR1 (Homo sapiens, UniProt P30872). Also noted: host or cells: CHO (Chinese Hamster Ovary) cells, membrane preparation. Particulars: hSSTR-1.
Source text: as §1, §2, §3

In the next test the target is SSTR2 (Homo sapiens, UniProt P30874). Also noted: host or cells: CHO (Chinese Hamster Ovary) cells, membrane preparation. Particulars: hSSTR-2.
Source text: as §1, §2, §3

For a further test, the target named is SSTR3 (Homo sapiens, UniProt P32745). Also noted: host or cells: CHO (Chinese Hamster Ovary) cells, membrane preparation. Particulars: for affinity and selectivity to SSTR3 (in words): binding data; for % displacement of [^125I] Tyr^11-SRIF-14: hSSTR-3.
Source text: as §1, §2, §3

*1 amine or outer side, *2 acyl side, *3 side chain or, on linkers, in order; H or OH if unused. Bridges are numbered along the chain shown (N, C = ends). [ ]: non-standard residue; d: D form. The star is where a group is joined. DOTA = O=C(O)CN1CCN(CC(=O)O)CCN(CC(=O)*)CCN(CC(=O)O)CC1; N(2-mercaptoethyl)Gly = O=C(CN(CCS[*:3])[*:1])[*:2]; Orn = NCCC[C@H](N)C(=O)O; GABA = NCCCC(=O)O

Sequence of SSTR1 (P30872 whole entry): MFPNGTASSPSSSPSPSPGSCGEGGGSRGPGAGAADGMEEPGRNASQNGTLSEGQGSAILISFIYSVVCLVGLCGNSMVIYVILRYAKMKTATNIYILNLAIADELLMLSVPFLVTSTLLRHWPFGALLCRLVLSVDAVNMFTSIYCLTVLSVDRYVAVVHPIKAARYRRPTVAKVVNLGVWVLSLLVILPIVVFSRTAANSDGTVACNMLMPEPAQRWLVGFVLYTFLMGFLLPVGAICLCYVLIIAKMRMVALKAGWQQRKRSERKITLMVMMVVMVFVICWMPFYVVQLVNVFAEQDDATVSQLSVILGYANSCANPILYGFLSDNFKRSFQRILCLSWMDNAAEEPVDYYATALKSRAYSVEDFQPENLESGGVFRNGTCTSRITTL
Sequence of SSTR3 (P32745 whole entry): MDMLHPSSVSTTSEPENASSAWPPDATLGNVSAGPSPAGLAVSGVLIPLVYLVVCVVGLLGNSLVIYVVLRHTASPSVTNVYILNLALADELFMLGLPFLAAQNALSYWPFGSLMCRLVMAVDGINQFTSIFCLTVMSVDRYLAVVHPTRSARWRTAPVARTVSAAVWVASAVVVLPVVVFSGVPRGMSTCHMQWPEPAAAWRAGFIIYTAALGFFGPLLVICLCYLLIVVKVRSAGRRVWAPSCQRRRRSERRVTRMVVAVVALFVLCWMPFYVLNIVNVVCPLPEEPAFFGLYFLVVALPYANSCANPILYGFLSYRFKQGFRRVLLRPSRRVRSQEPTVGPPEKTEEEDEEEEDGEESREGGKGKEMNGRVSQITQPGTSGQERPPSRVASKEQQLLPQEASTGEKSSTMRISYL
Sequence of SSTR5 (P35346 whole entry): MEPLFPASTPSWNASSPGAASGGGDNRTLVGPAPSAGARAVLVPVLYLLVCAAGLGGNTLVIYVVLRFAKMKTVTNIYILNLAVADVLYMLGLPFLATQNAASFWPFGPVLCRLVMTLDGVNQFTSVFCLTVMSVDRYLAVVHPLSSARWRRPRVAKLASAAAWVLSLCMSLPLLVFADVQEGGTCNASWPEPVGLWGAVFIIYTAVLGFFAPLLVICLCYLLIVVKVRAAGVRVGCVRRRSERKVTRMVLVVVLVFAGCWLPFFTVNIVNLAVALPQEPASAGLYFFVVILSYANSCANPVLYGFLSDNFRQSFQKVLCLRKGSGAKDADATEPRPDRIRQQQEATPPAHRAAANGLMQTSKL
T1 sequence (P31391 whole entry): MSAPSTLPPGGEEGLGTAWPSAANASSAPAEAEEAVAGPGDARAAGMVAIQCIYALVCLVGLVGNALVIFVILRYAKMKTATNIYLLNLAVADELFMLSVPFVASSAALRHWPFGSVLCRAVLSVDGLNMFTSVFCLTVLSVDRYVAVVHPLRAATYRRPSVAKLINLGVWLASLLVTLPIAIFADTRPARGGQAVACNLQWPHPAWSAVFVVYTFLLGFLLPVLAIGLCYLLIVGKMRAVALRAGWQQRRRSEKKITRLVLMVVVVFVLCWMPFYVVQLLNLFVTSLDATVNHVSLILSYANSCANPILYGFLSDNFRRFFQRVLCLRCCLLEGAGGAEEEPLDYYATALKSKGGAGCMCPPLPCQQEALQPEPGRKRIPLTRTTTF
Sequence of SSTR2 (P30874 whole entry): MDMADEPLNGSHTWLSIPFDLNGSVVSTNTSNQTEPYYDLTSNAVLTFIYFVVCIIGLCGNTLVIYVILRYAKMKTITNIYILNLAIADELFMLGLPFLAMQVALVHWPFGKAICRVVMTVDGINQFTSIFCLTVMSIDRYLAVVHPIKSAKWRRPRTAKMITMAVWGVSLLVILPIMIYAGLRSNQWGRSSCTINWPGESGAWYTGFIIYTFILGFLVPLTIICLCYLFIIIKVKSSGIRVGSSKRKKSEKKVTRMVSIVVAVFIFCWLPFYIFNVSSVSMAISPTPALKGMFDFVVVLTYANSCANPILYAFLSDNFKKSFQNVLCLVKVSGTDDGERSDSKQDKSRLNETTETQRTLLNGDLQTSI

“DOTA-D-Phe^1-Glu^2-Glu^3-Orn^4-Cys^5-Phe^6-D-Trp^7-Lys^8-Thr^9-Phe^10-NTEG^11-NH2 (cyclo 5-11) ({DOTA}-[dF]EE[Orn]CF[dW]KTF[N(2-mercaptoethyl)Gly]-NH2; disulfide 5-11; SMILES C[C@@H](O)[C@@H]1NC(=O)[C@H](CCCCN)NC(=O)[C@@H](Cc2c[nH]c3ccccc23)NC(=O)[C@H](Cc2ccccc2)NC(=O)[C@@H](NC(=O)[C@H](CCCN)NC(=O)[C@H](CCC(=O)O)NC(=O)[C@H](CCC(=O)O)NC(=O)[C@@H](Cc2ccccc2)NC(=O)CN2CCN(CC(=O)O)CCN(CC(=O)O)CCN(CC(=O)O)CC2)CSSCCN(CC(N)=O)C(=O)[C@H](Cc2ccccc2)NC1=O) [SEQ ID NO: 22]”: the “% displacement of [^125I] Tyr^11-SRIF-14” value in the test with hSSTR-4 (at 1 nM (in brackets)) is 0%; in the test with hSSTR-4 (at 10 nM) it was 3%; with SSTR5 (at 1 nM (in brackets)), 0(0) %; with SSTR5 (at 10 nM) it was 0(0) %; in the test with SSTR1 (at 1 nM (in brackets)), 8%; with SSTR1 (at 10 nM), 7%. The “% displacement of [^125I] Tyr^11-SRIF-14” value is listed as 0(0) % with SSTR2 (at 1 nM (in brackets)), 0(0) % in the test with SSTR2 (at 10 nM), 0% with SSTR3 (at 1 nM (in brackets)) and 49% with SSTR3 (at 10 nM). In the test with SSTR3, the “affinity and selectivity to SSTR3 (in words)” value was “did not interfere with the affinity and selectivity to SSTR3”.
On to “DOTA-D-Phe^1-Glu^2-Orn^3-Cys^4-Phe^5-D-Trp^6-Lys^7-Thr^8-Phe^9-NTEG^10-NH2 (cyclo 4-10) ({DOTA}-[dF]E[Orn]CF[dW]KTF[N(2-mercaptoethyl)Gly]-NH2; disulfide 4-10; SMILES C[C@@H](O)[C@@H]1NC(=O)[C@H](CCCCN)NC(=O)[C@@H](Cc2c[nH]c3ccccc23)NC(=O)[C@H](Cc2ccccc2)NC(=O)[C@@H](NC(=O)[C@H](CCCN)NC(=O)[C@H](CCC(=O)O)NC(=O)[C@@H](Cc2ccccc2)NC(=O)CN2CCN(CC(=O)O)CCN(CC(=O)O)CCN(CC(=O)O)CC2)CSSCCN(CC(N)=O)C(=O)[C@H](Cc2ccccc2)NC1=O) [SEQ ID NO: 23]”, for which the “% displacement of [^125I] Tyr^11-SRIF-14” value with hSSTR-4 (at 1 nM (in brackets)) is recorded as 0(0) %; in the test with hSSTR-4 (at 10 nM) it was 0(0) %; with SSTR5 (at 1 nM (in brackets)) it was 0(0) %; in the test with SSTR5 (at 10 nM), 0(0) %; in the test with SSTR1 (at 1 nM (in brackets)) it was 4%; with SSTR1 (at 10 nM), 6%. The “% displacement of [^125I] Tyr^11-SRIF-14” value was 0(0) % with SSTR2 (at 1 nM (in brackets)), 0(0) % in the test with SSTR2 (at 10 nM), 19% with SSTR3 (at 1 nM (in brackets)) and 56% with SSTR3 (at 10 nM).
In the case of “DOTA-D-Phe^1-Orn^2-Cys^3-Phe^4-D-Trp^5-Lys^6-Thr^7-Phe^8-NTEG^9-NH2 cyclo 3-9 [SEQ ID NO: 21]”, the “% displacement of [^125I] Tyr^11-SRIF-14” value at hSSTR-4 (at 1 nM (in brackets)) is recorded as 9(9) %; on hSSTR-4 (at 10 nM), 9(9) %; on SSTR5 (at 1 nM (in brackets)), 0(0) %; at SSTR5 (at 10 nM), 0(0) %; on SSTR1 (at 1 nM (in brackets)), 23%; at SSTR1 (at 10 nM), 22%. The “% displacement of [^125I] Tyr^11-SRIF-14” value on SSTR2 (at 1 nM (in brackets)) is listed as 0%; at SSTR2 (at 10 nM), 2%; on SSTR3 (at 1 nM (in brackets)) it was 59%; on SSTR3 (at 10 nM), 93%. For the same substance, the “affinity and selectivity to SSTR3 (in words)” value at SSTR3 is “did not interfere with the affinity and selectivity to SSTR3”.
For “DOTA-Gly^1-D-Phe^2-Arg^3-Cys^4-Phe^5-D-Trp^6-Lys^7-Thr^8-Phe^9-NTEG^10-NH2 (cyclo 4-10) ({DOTA}-G[dF]RCF[dW]KTF[N(2-mercaptoethyl)Gly]-NH2; disulfide 4-10; SMILES C[C@@H](O)[C@@H]1NC(=O)[C@H](CCCCN)NC(=O)[C@@H](Cc2c[nH]c3ccccc23)NC(=O)[C@H](Cc2ccccc2)NC(=O)[C@@H](NC(=O)[C@H](CCCNC(=N)N)NC(=O)[C@@H](Cc2ccccc2)NC(=O)CNC(=O)CN2CCN(CC(=O)O)CCN(CC(=O)O)CCN(CC(=O)O)CC2)CSSCCN(CC(N)=O)C(=O)[C@H](Cc2ccccc2)NC1=O) [SEQ ID NO: 11]”, the “% displacement of [^125I] Tyr^11-SRIF-14” value with hSSTR-4 (at 1 nM (in brackets)) was 0(0) %; with hSSTR-4 (at 10 nM), 0(0) %; with SSTR5 (at 1 nM (in brackets)) it was 0(0) %; in the test with SSTR5 (at 10 nM), 0(0) %; with SSTR1 (at 1 nM (in brackets)), 2%; in the test with SSTR1 (at 10 nM), 19%. Also, the “% displacement of [^125I] Tyr^11-SRIF-14” value with SSTR2 (at 1 nM (in brackets)) is 0(0) %; in the test with SSTR2 (at 10 nM) it was 0(0) %; with SSTR3 (at 1 nM (in brackets)), 47%; in the test with SSTR3 (at 10 nM), 88%.
On to “DOTA-Lys^1-D-Phe^2-Arg^3-Gly^4-Asp^5-Glu^6-GABA-D-Phe^7-Lys^8-Cys^9-Phe^10-D-Trp^11-Lys^12- Thr^13-Phe^14-NTEG^15-NH2 (cyclo 1-6; cyclo 9-15) ({DOTA}-K[dF]RGDE[GABA][dF]KCF[dW]KTF[N(2-mercaptoethyl)Gly]-NH2; lactam 1-6; disulfide 10-16; not fully specified; printed as DOTA-Lys1-D-Phe2-Arg3-Gly4-Asp5-Glu6-GABA-D-Phe7-Lys8-Cys9-Phe10-D-Trp11-Lys12- Thr13-Phe14-NTEG15-NH2 (cyclo 1-6, cyclo 9-15); numbers in words are those of the source; also: cyclo 1-6 listed as disulfide between Lys1 and Glu6) [SEQ ID NO: 17]”, for which the “% displacement of [^125I] Tyr^11-SRIF-14” value in the test with hSSTR-4 (at 1 nM (in brackets)) is 7%; with hSSTR-4 (at 10 nM), 5%; with SSTR5 (at 1 nM (in brackets)) it was 15%; with SSTR5 (at 10 nM), 13%; with SSTR1 (at 1 nM (in brackets)), 9%; with SSTR1 (at 10 nM), 15%. Moreover, the “% displacement of [^125I] Tyr^11-SRIF-14” value in the test with SSTR2 (at 1 nM (in brackets)) was found to be 11%; with SSTR2 (at 10 nM), 8%; with SSTR3 (at 1 nM (in brackets)) it was 68%; with SSTR3 (at 10 nM) it was 91%.
In the case of “DOTA-Phe^1-D-Phe^2-Arg^3-(Cys^4-Phe^5-D-Trp^6-Lys^7-Thr^8-Phe^9-NTEG^10)-NH2 (cyclo 4-10) ({DOTA}-F[dF]RCF[dW]KTF[N(2-mercaptoethyl)Gly]-NH2; disulfide 4-10; SMILES C[C@@H](O)[C@@H]1NC(=O)[C@H](CCCCN)NC(=O)[C@@H](Cc2c[nH]c3ccccc23)NC(=O)[C@H](Cc2ccccc2)NC(=O)[C@@H](NC(=O)[C@H](CCCNC(=N)N)NC(=O)[C@@H](Cc2ccccc2)NC(=O)[C@H](Cc2ccccc2)NC(=O)CN2CCN(CC(=O)O)CCN(CC(=O)O)CCN(CC(=O)O)CC2)CSSCCN(CC(N)=O)C(=O)[C@H](Cc2ccccc2)NC1=O) [SEQ ID NO: 20]”, the “% displacement of [^125I] Tyr^11-SRIF-14” value with hSSTR-4 (at 1 nM (in brackets)) is 0(0) %; with hSSTR-4 (at 10 nM), 0(0) %; in the test with SSTR5 (at 1 nM (in brackets)), 0(0) %; with SSTR5 (at 10 nM), 0(0) %; in the test with SSTR1 (at 1 nM (in brackets)) it was 8%; in the test with SSTR1 (at 10 nM), 14%. Moreover, the “% displacement of [^125I] Tyr^11-SRIF-14” value in the test with SSTR2 (at 1 nM (in brackets)) stood at 0%; with SSTR2 (at 10 nM), 2%; with SSTR3 (at 1 nM (in brackets)), 66%; with SSTR3 (at 10 nM), 95%.
